Assays:
[1] = target: T (control protein of the yeast two-hybrid kit, pGBKT7-T as printed); assay: two-hybrid; quantitative β-gal assay of mated yeast cells with ONPG as substrate, Miller's units from OD420, in triplicate; product in test samples almost 20 h after substrate addition
[2] = target: GmZPR3d (soybean (Glycine max)); assay: as above

fold β-Gal activity against GmHD-ZIP III-2::ZPR3b and GmHD-ZIP III-2::ZPR3c [2] [fold]	Substance	fold β-Gal activity against any of the experimental pairs [1] [fold]
–	53 (positive control protein of the yeast two-hybrid kit, pGADT7-53 as printed) (domain or fragment)	14
7	GmHD-ZIP III-2 (natural protein)	–
